Test results as given in the supplement of paper PMC7877785.
± gives the uncertainty stated by the source.

Assay: self-splicing fitness, log relative to wild type (ln ratio); higher = more splicing; Tetrahymena group I intron in knt gene, E. coli kanamycin selection, DiMSum; sequences stand for … in CUCUCU…GGAGGGAAAAGUUAUCAGGCAUGCACCUGGUAGCUAGUCUUUAAACCAAUAGAUUGCAUCGGUUUAAAAGGCAAGACCGUCAAAUUGCGGGAAAGGGGUCAACAGCCGUUCAGUACCAAGUCUCAGGGGAAACUUUGAGAUGGCCUUGCAAAGGGUAUGGUAAUAAGCUGACGGACAUGGUCCUAACCACGCAGCCAAGUCCUAAGUCAACAGAUCUUCUGUUGAUAUGGAUGCAGUUCACAGACUAAAUGUCGGUCGGGGAAGAUGUAUUCUUCUCAUAAGAUAUAGUCGGACCUCUCCUUAAUGGGAGCUAGCGGAUGAAGUGAUGCAACACUGGAGCCGCUGGGAACUAAUUUGUAUGCGAAAGUAUAUUGAUUAGUUUUGGAGUACUCGUGGUCG
In short: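 Library with all eight P1ex-region intron nucleotides randomised, intron inside the knt kanamycin-resistance gene on pET-22b(+), in E. coli BL21(DE3). Cells grew overnight at 37°C or 30°C on LB agar with or without 25 μg/mL kanamycin (plus 100 μg/mL carbenicillin, 50 μM IPTG, 0.2% rhamnose), in six replicate transformations. Pooled colonies were amplicon-sequenced on Illumina HiSeq 2500. DiMSum fitness is the error-weighted combination of wild-type-normalised replicate fold changes, kanamycin versus none.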

Sequence | self-splicing fitness (ln) (30 °C) | self-splicing fitness (ln) (37 °C)
GCUAAGCAAUAUUACGCAGU | -3.5 ± 0.24 | -2.88 ± 0.31
GCUAAGCAAUAUUACGCAUG | -2.51 ± 0.16 | -2.09 ± 0.15
GCUAAGCAAUAUUACGCCAU | -2.71 ± 0.2 | -3.21 ± 0.27
GCUAAGCAAUAUUACGCCCC | -1.74 ± 0.28 | -0.52 ± 0.21
GCUAAGCAAUAUUACGCCGU | -3.45 ± 0.3 | -0.927 ± 0.31
GCUAAGCAAUAUUACGCGAA | -2.87 ± 0.13 | -1.1 ± 0.14
GCUAAGCAAUAUUACGCGAC | -2.11 ± 0.14 | -1.54 ± 0.17
GCUAAGCAAUAUUACGCGUA | -1.26 ± 0.12 | -0.718 ± 0.14
GCUAAGCAAUAUUACGGAAA | -1.48 ± 0.2 | -2.28 ± 0.24
GCUAAGCAAUAUUACGGAAG | -1.5 ± 0.071 | -0.648 ± 0.088
GCUAAGCAAUAUUACGGACA | -1.35 ± 0.12 | -1.17 ± 0.12
GCUAAGCAAUAUUACGGCCU | -1.89 ± 0.095 | -0.893 ± 0.11
GCUAAGCAAUAUUACGGUAA | -1.65 ± 0.17 | -1.04 ± 0.16
GCUAAGCAAUAUUACGUAUA | -1.76 ± 0.12 | -0.55 ± 0.13
GCUAAGCAAUAUUACGUCAA | -1.5 ± 0.26 | -1.76 ± 0.32
GCUAAGCAAUAUUACGUCUA | -0.793 ± 0.095 | -0.911 ± 0.12
GCUAAGCAAUAUUACGUGAC | -2.24 ± 0.2 | -0.851 ± 0.21
GCUAAGCAAUAUUACGUGGG | -2.99 ± 0.14 | -1.61 ± 0.13
GCUCAGCAAUAUUACGAACG | -0.679 ± 0.15 | -0.216 ± 0.17

Sequence | self-splicing fitness (ln) (30 °C) | self-splicing fitness (ln) (37 °C)
GCUCAGCAAUAUUACGAAUC | -0.406 ± 0.081 | -0.385 ± 0.082
GCUCAGCAAUAUUACGACAC | -0.687 ± 0.098 | 0.564 ± 0.15
GCUCAGCAAUAUUACGACCG | -1.52 ± 0.17 | -0.109 ± 0.17
GCUCAGCAAUAUUACGAGAU | -1.4 ± 0.077 | -0.431 ± 0.078
GCUCAGCAAUAUUACGAGGC | -4.34 ± 0.42 | -1.42 ± 0.19
GCUCAGCAAUAUUACGAUAG | -1.95 ± 0.11 | -1.26 ± 0.096
GCUCAGCAAUAUUACGAUCC | -0.823 ± 0.076 | -0.215 ± 0.1
GCUCAGCAAUAUUACGAUUU | -0.259 ± 0.056 | 0.00309 ± 0.075
GCUCAGCAAUAUUACGCAAA | -1.15 ± 0.18 | -0.688 ± 0.14
GCUCAGCAAUAUUACGCCCA | -1.99 ± 0.25 | -1.09 ± 0.23
GCUCAGCAAUAUUACGCGUA | -0.217 ± 0.067 | -0.265 ± 0.079
GCUCAGCAAUAUUACGCGUU | -0.447 ± 0.066 | 0.599 ± 0.084
GCUCAGCAAUAUUACGCUGU | -1.22 ± 0.073 | -0.159 ± 0.081
GCUCAGCAAUAUUACGCUUA | -1.4 ± 0.054 | -0.165 ± 0.06
GCUCAGCAAUAUUACGGAAC | -0.677 ± 0.073 | 0.0247 ± 0.11
GCUCAGCAAUAUUACGGAGU | -4.36 ± 0.29 | -3.35 ± 0.32
GCUCAGCAAUAUUACGGCCA | -1.77 ± 0.15 | -0.805 ± 0.16
GCUCAGCAAUAUUACGGGGG | -3.18 ± 0.17 | -1.92 ± 0.16
